Experimental data from patent publication US20240109958A1 (Genentech, published 2024).
Groups on a side chain read outwards from the residue. No end group written: not given here.

T1: biotinylated K-ε-GG peptide (AAA{K-ε-GG}AAA) (also: biotinylated, position not given here)
T1 construct: also called branched diglycine peptide
T1 peptide: AAAK([Gly-Gly])AAA


Biological target: T1, biotinylated K-ε-GG peptide …
Assay: ELISA, biotinylated peptide on neutravidin plates
Experimental: Biotinylated peptides (GGM and K-ε-GG) were coated at 1 μg/mL in PBS on neutravidin ELISA plates (Thermo Scientific) in triplicate overnight at 4° C. Plates were washed with PBST prior to use. Serial dilutions of GGX mAbs or K-ε-GG mAb (Cell Signaling Technology) at 1 μg/mL were added for 1-2 hours at 25° C. Plates were washed and further developed as described above (see FIG. 1E).

binding result	Binder
no binding (tested: 1 µg/mL)	anti-GGX monoclonal antibody 2B12 (rabbit IgG) (antibody, V domains shown, also called anti-GGX antibody 2B12) VH: QSVEESGGGLVTPGGALTLTCTASGFSLNRHWMNWVRQAPGKGLEWIGAINESGRTYYATWAKGRFFISKTTTTVDLKITSPTTADTATYFCVRDDDVSNFWGPGTLVTVSS VL: DPMLTQTPSSVSAAVGGTVSINCQSTKSVYKYNHLSWYQQKPGQPPKQLIFPASTLQSGVPSRFSGSGSGTQFTLTISDVQCDDAATYYCLGLYDCRSGDCNVFGGGTKLEIKG
no binding (tested: 1 µg/mL)	anti-GGX monoclonal antibody 1C7 (rabbit IgG) (antibody, V domains shown, also called anti-GGX antibody 1C7; anti-GGX mAb) VH: QSVKESGGRLVTPGTPLTLTCKVSGFSLSSYYMNWVRQAPGKGLEWIGIMFPNGKIYYATWAKGRFTISKTSTTVDLKIISPTTEDTATYFCTGDDSGDVNIWGPGTLVTVSS VL: DIVLTQTASPVSAAVGGTVTINCQSSQSVYTNNRLAWYQQKPGQPAKEMIYGASTLPSGVSSRFKGSGSGTQFALTISDVQCDDAATYYCLGTYDCLSADCLAFGGGTKLEIKG
no binding (tested: 1 µg/mL)	anti-GGX monoclonal antibody 2E9 (rabbit IgG) (antibody, V domains shown, also called anti-GGX antibody 2E9; anti-GGX 2E9 antibody) VH: QKQLMESGGRLVTPGTPLTLTCKVSGFSLSSYYMNWVRQAPGKGLEWIGIMFPNGKIYYATWAKGRFTISKTSTTVDLKIISPTTEDTATYFCTGDDSGDVNIWGPGTLVTVSS VL: DIVLTQTASPVSAAVGGTVTINCQSSQSVYTNNRLAWYQQKPGQPAKEMIYGASTLPSGVSSRFKGSGSGTQFALTISDVQCDDAATYYCLGEFDCTSADCFVFGGGTEVVVKG
no binding (tested: 1 µg/mL)	anti-GGX monoclonal antibody 2H2 (rabbit IgG) (antibody, V domains shown, also called anti-GGX antibody 2H2; anti-GGX 2H2 antibody) VH: QSVEESRGRLVTPGTPLTLTCKVSGFSLSSYYMNWVRQAPGKGLEWIGIMFPNGKIYYATWAKGRFTISKTSTTVDLKIISPTTEDTATYFCTGDDSGDVNIWGPGTLVTVSS VL: DPMLTQTASPVSAAVGGTVTINCQSSQSVYSNNRLAWYQQKPGQPPKEMIYGASTLPSGVSSRFKGSGSGTQFTLTISDVQCDDAATYYCLGTYDCLSADCLAFGGGTEVVVKG
